From patent US8476051B2, “Thermostable alcohol dehydrogenase derived from Thermococcus guaymasensis” (priority 2008, dated 2013)
“And” between values parts separate entries of the source, which are not always exact repeats. Equal values may be shown once. Read-outs that look alike come from different tables or passages of the source.

Columns and labels:
T. guaymasensis ADH [1] = biological target: T1, T. guaymasensis ADH (Thermococcus guaymasensis, UniProt F8S123); assay: Kinetic parameters, alcohol oxidation with NADP+; type: biochemical; settings: co-substrate NADP^+ (0.4 mM)
Description: (§1) The purified enzyme (0.25 μg) initiated the enzyme assay. […] The protein concentrations of all samples were determined using the Bradford method and bovine serum albumin served as the standard protein (Bradford 1976).
(§2) Apparent values of Km and Vmax were calculated using the curve fittings of SigmaPlot (Systat Software Inc., San Jose, Calif., USA).

T. guaymasensis ADH [2] = biological target: T1, T. guaymasensis ADH; assay: Kinetic parameters, ketone reduction with NADPH; type: biochemical
Description: as §1, §2

[3] = Description: The effect of pH on the enzyme activities was determined over a range of 5.5-11.4. The buffers (100 mM) used were phosphate (pH 5.5-8.0), EPPS (8.0-9.0), glycylglycine (9.0-9.7), and CAPS (9.7-11.4). The effect of the temperature on the enzyme activity was examined at temperatures from 30 to 95° C. […] Residual activity was assayed at various time intervals under the standard assay conditions. Substrate specificity was determined using primary and secondary alcohols (50 mM), diols and polyols (50 mM), or aldehydes and ketones (6 mM) under standard assay conditions.
(§3) The effect of the temperature on the enzyme activity was examined at temperatures from 30 to 95° C. The activities were measured using standard assay conditions. Enzyme thermostability was evaluated by incubating the enzyme in sealed serum bottle at 80° C. and 95° C. respectively, and measuring the residual activities at different time intervals under the standard assay conditions.

[4] = ADH specific activity (spectrophotometric enzyme assay); type: biochemical; settings: 80° C.; for Specific activity: standard assay
Description: as §1
The reaction was initiated by adding enzymes.

T. guaymasensis ADH [5] = biological target: T1, T. guaymasensis ADH; assay: Stereoselective conversion between acetoin and 2,3-butanediol (chiral GC); type: biochemical
Description: All the reactions were carried out at 30° C. for 24 hours unless specified. After that, the reaction mixture (1 ml) was extracted with 1 ml ethyl acetate or dichloride methane with shaking on a Gyrotory water bath shaker model G76 (New Brunswick Scientific Co., INC., NJ, USA) at 350 rpm for 30 min (room temperature). The stereoselectivity of the purified enzyme was determined using the Shimadzu GC-14A gas chromatography equipped with a CP-Chirasil-Dex CB column (0.25 mm ID×25 m length, Varian Inc., Palo Alto, Calif., USA). The following GC operating conditions included the FID detector (250° C.) at a sensitivity range of 10 and helium as the carrier gas at a linear velocity of 40 cm s^−1. […] The reaction mixture after extraction (0.5 μl) was directly applied onto the injector (200° C.) for each assay. The peak areas were quantitated using specific external standards.

[6] = remark: listed apart in the source
From the text: Enzymes resistant to solvent inactivation are of great interest from scientific and practical points of view.

[7] = Oxygen sensitivity (residual activity after exposure to air); type: physicochemical; settings: for t1/2 upon exposure to the air: room temperature
Description: The effect of oxygen on enzyme activity was investigated by exposing the enzyme samples in the air at room temperature and determining the residual activity after oxygen exposure. The exposure was performed in the presence or absence of DDT and SDT. The residual activities of each sample at different time intervals were tested parallelly under the standard assay conditions.

[8] = Temperature dependence of enzyme activity; type: biochemical
Description: (§4) The effect of pH on the enzyme activities was determined over a range of 5.5-11.4. The buffers (100 mM) used were phosphate (pH 5.5-8.0), EPPS (8.0-9.0), glycylglycine (9.0-9.7), and CAPS (9.7-11.4). The effect of the temperature on the enzyme activity was examined at temperatures from 30 to 95° C. Enzyme thermostability was determined by incubating the enzyme in sealed serum bottles at 80° C. and 95° C., respectively. Residual activity was assayed at various time intervals under the standard assay conditions. Substrate specificity was determined using primary and secondary alcohols (50 mM), diols and polyols (50 mM), or aldehydes and ketones (6 mM) under standard assay conditions.
as §3

[9] = Optimum pH of enzyme activity; type: biochemical
Description: as §4
All the catalytic properties of native and recombinant TgADH were determined using the in vitro enzyme assay described above. The optimal pH of ethanol-dependent oxidation of native and recombinant TgADHs was determined by testing and comparing the enzyme activity at a series of pHs. Standard enzyme assay at 80° C. were applied using a set of 100 mM buffers: HEPES (pH 6.5, 7.0, 7.5 and 8.0), EPPS (pH 8.0, 8.5, 8.8, 9.0), glycine (pH 9.0, 9.5, 10.0) and CAPS (pH 10.0, 10.5, 11.0). The optimal pH of acetaldehyde-dependent reduction of native and recombinant TgADH was measured between pH 5.5 and 9.5 using the following buffers (100 mM): citrate (pH 5.5 and 6.0), PIPES (pH 6.0, 6.5 and 7.0), HEPES (pH 7.0, 7.5 and 8.0), EPPS (pH 8.0, 8.5, and 9.0), and glycine (pH 9.0 and 9.5).

[10] = cited from earlier work

C[C@H](O)[C@H](C)O [(2S,3S)-(+)-2,3-butanediol]
Apparent Vmax (T. guaymasensis ADH [1]): 769 U mg^−1
kcat (T. guaymasensis ADH [1]): 512 s⁻¹

nicotinamide adenine dinucleotide phosphate [NADPH]
Apparent Km for NADPH, times lower than for NADP^+ (T. guaymasensis ADH [2]): 40 times

B1: TgADH: alcohol dehydrogenase purified from Thermococcus guaymasensis, SEQ ID NO:4, homotetramer, zinc-containing, NADP^+-dependent (protein, listed as Thermococcus guaymasensis)
chain: SKMRGFAMVDFGKAEWIEKERPKPGPYDAIVKPIAVAPCTSDIHTVFEAAFPREMCEFPRILGHEAVGEVVEVGSHVKDFKPGDRVVVPAITPDWRTLDVQRGYHQHSGGMLAGWKFSNPLKEGGKDGVFAEYFHVNDADMNLAHLPDEIKPEVAVMATDMMTTGFHGAELADIPLGGTVAVIGIGPVGLMAVAGARLLGAGRIIAVGSRPVCVEAAKYYGATDIVNRREHPDIAGRILELTGGEGVDSVIIAGGNVDVMKTAVKIVKPGGTVANINYFGSGDYLPIPRIEWGQGMAHKTIKGGLCPGGRLRMERLLDLIKYGRVDPSRLITHKFKGFDKIPEALYLMKDKPKDLIKPVVIIEE
modifications: homotetramer, zinc-containing
Thermostability [3]: 24 hr at 95 °C
t1/2 (thermostability) [3]: 70 h
Activity after incubation ([3]; 80° C. for 40 hours): 60%
Enzyme (specific) activity ([4]; 2-butanol as assay substrate): 1149 U mg^−1
Specific activity [4]: 1049 U/mg
Chiral compound synthesis preference (T. guaymasensis ADH [5]): R-configured
Enzyme activity remaining, of full activity [6]: about 40%
Methanol concentration at which half of full activity remained [6]: about 24 % (v/v)
Methanol concentration up to which the enzyme was active [6]: up to 40 % (v/v)
Solvent tolerance ([6]; methanol): 24% methanol
Enzyme activity retained (in words) ([6]; methanol up to 5% (v/v)): almost its full activity
Activity after exposure to air (in words) ([7]; exposed to air for a week): lost activity
t1/2 upon exposure to the air [7]: 6 h
t1/2 upon exposure to the air ([7]; listed as T. guaymasensis ADH): about 4 hours
Optimal temperature ([8]; tested 30 to 95° C.): over 95 °C
Optimal pH, acetaldehyde reduction [9]: 7.5
Optimal pH, ethanol oxidation [9]: 10.5
Optimal pH, formation of alcohols (2-butanone reduction) [9]: 7.5
Optimal pH, oxidation of alcohols (2-butanol) [9]: 10.5

B2: recombinant TgADH: recombinant wild-type TgADH polypeptide (SEQ ID NO: 8) expressed in E. coli BL21-codon plus RIL with vector pET30a (protein)
chain: MHHHHHHSSGLVPRGSGMKETAAAKFERQHMDSPDLGTDDDDKAMADIGSEFMSKMRGFAMVDFGKAEWIEKERPKPGPYDAIVKPIAVAPCTSDIHTVFEAAFPREMCEFPRILGHEAVGEVVEVGSHVKDFKPGDRVVVPAITPDWRTLDVQRGYHQHSGGMLAGWKFSNPLKEGGKDGVFAEYFHVNDADMNLAHLPDEIKPEVAVMATDMMTTGFHGAELADIPLGGTVAVIGIGPVGLMAVAGARLLGAGRIIAVGSRPVCVEAAKYYGATDIVNRREHPDIAGRILELTGGEGVDSVIIAGGNVDVMKTAVKIVKPGGTVANINYFGSGDYLPIPRIEWGQGMAHKTIKGGLCPGGRLRMERLLDLIKYGRVDPSRLITHKFKGFDKIPEALYLMKDKPKDLIKPVVIIEE
modifications: Wild-type with vector coding region
t1/2 (thermostability) [3]: about 26 hours
Enzyme activity after heat treatment of cell extract (in words) ([3]; 60° C. for half an hour): no loss
Residual activity after incubation ([3]; 42 hours at 80° C.): more than 60%
Specific activity [4]: 1079 U/mg and 1073 U/mg
Specific activity ([4]; listed as recombinant enzyme): 1073 U/mg
t1/2 upon exposure to the air [7]: about 4 hours
Highest activity in temperature dependence test ([8]; at 95° C.): 1533 U/mg
Optimal pH, formation of alcohols (2-butanone reduction) [9]: 7.5
Optimal pH, oxidation of alcohols (2-butanol) [9]: 10.5

B3: T. brockii: T brockii ADH available at Sigma Aldrich, essentially T ehtanolicus ADH (protein, UniProt P14941 1-352, looked up)
NADP-dependent isopropanol …: MKGFAMLSIGKVGWIEKEKPAPGPFDAIVRPLAVAPCTSDIHTVFEGAIGERHNMILGHEAVGEVVEVGSEVKDFKPGDRVVVPAITPDWRTSEVQRGYHQHSGGMLAGWKFSNVKDGVFGEFFHVNDADMNLAHLPKEIPLEAAVMIPDMMTTGFHGAELADIELGATVAVLGIGPVGLMAVAGAKLRGAGRIIAVGSRPVCVDAAKYYGATDIVNYKDGPIESQIMNLTEGKGVDAAIIAGGNADIMATAVKIVKPGGTIANVNYFGEGEVLPVPRLEWGCGMAHKTIKGGLCPGGRLRMERLIDLVFYKRVDPSKLVTHVFRGFDNIEKAFMLMKDKPKDLIKPVVILA
Thermostability ([10]; at 93.8° C.): 60 min at
Solvent tolerance ([10]; isopropanol): 64%
